Patent US8546353B2, “Compounds and combinations” (priority 2010, dated 2013)
“Also recorded” adds a separate entry of the source.

Legend:
[1] = test system: circulating hematopoietic progenitor cells (HPCs) in peripheral blood; assay: Peripheral blood stem cell mobilization, colony forming unit (CFU) assay on peripheral blood mononuclear cells; type: in vivo, C57BL/6J mice
Description: (§1) Adult (8-10 weeks) female, age-matched C57BL/6J (Jackson stock nr 000664, the Charles River Laboratories) CD45.2 mice were used in the in vivo mobilization experiments. The acclimatization period was always at least 7 days before the experiments. The animals were individually identified by ear and tail numbering and were housed in a Scantainer (Scanbur A/S, Karlslunde, Denmark) in Makrolon III cages. The animal room temperature was 21±2° C. and humidity was between 40-60%. Lightning was artificial, 12 h light and 12 h dark. The mice were provided with irradiated fodder and normal tap water ad libitum. Average weight of all animals in the experiments was 18.8±1.5 g. No formal randomization or grouping was done. Animals were randomly allocated to the study groups. All animals were weighed before the first dosing and in the end of each study.
(§2) Sterile filtered PBS (pH 7.2) served as vehicle in all studies and was injected intravenously in the tail vein in similar volumes (50 or 100 μl) and time-points as the other test items within each study. Recombinant pegylated granulocyte-colony stimulatory factor (G-CSF), pegfilgrastim (Neulasta™, Amgen), with the stock concentration 10 mg/ml, was diluted immediately before the injections in sterile filtered PBS (pH 7.2) to yield a 0.25-0.5 mg/ml dosing solution. The animals obtained 25 μg pegfilgrastim (Neulasta™) subcutaneously at a dose volume of 50 or 100 μl on study day 0. The LMW hyaluronic acid derivatives HA and 6-O-S HA were prepared for injections into sterile filtered PBS in 5-10 mg/ml solutions and injected intravenously in the tail vein in dose volumes of 50 or 100 μl yielding 500 μg doses/mouse.
The LMW hyaluronic acid (HA) derivatives were tested for capability to mobilize hematopoietic stem and progenitor cells to peripheral blood after 500 μg i.v. injections at the following time-points: 4h, 1d, 2d, 3d and 5d post-injections. Repetitive dosing was tested with daily 500 μg i.v. injections and sampling was done either on experimental days 2 (after 3 doses) or 5 (after 6 doses) after the first injection on day 0. Abnormal clinical signs or mortality was not observed with the LMW HA derivatives with 500 μg doses. […]
Mononuclear cells were isolated by carefully overlaying 3 ml Ficoll-Paque® (GE Healthcare) with peripheral blood diluted 1:2 in phosphate buffered saline (PBS)-2 mM EDTA. […] Mononuclear cell yields were counted using a Bürker chamber.
(§3) Myeloid hematopoietic progenitor cells were further enumerated by the colony forming unit (CFU/CFC) assay. Progenitor cells that are restricted in their lineage potential and that have limited self-renewal capability can be detected in colony-forming cell (CFC) assays using semisolid media such as methylcellulose, agar or collagen. […]

[2] = test system: hematopoietic progenitor cells (HPCs) in the bone marrow; assay: CFU assay on bone marrow mononuclear cells; type: in vivo, C57BL/6J mice; conditions: single 25 μg s.c. at day 0, samples at day 5, 1×10^5 mononuclear cells
Description: as §1, with “All animals were weighed before the first dosing and in the end of each study.” left out
as §3, with “collagen. Progenitors that read out in culture assays can either be multipotent, e.g. capable of generating progeny of multiple blood cell types, or restricted to one or two lineages, e.g. erythrocytes, granulocytes, monocyte/macrophages or platelets.” for “collagen.”

[3] = test system: white blood cell (WBC) contents in peripheral blood; assay: Leukocyte content in blood, automated blood cell counter Sysmex XT-2000i; type: in vivo, C57BL/6J mice; conditions: single dose (HA derivatives 500 μg i.v.; pegfilgrastim 25 μg s.c.); 5 days (FIG. 2C)
Description: as §1
(§4) Sterile filtered PBS (pH 7.2) served as vehicle in all studies and was injected intravenously in the tail vein in similar volumes (50 or 100 μl) and time-points as the other test items within each study. […]
(§5) The leukocyte, erythrocyte and platelet contents were determined for all blood samples by automated blood cell counter Sysmex XT-2000i by diluting the mouse blood 1:4 with 0.9% NaCl.
(§6) Complete blood counts (numbers of white blood cells, mature red blood cells and platelets) of mouse peripheral blood were determined with automated blood cell counter.

[4] = test system: red blood cell (RBC) contents in peripheral blood; assay: Erythrocyte content in blood, automated blood cell counter Sysmex XT-2000i; type: in vivo, C57BL/6J mice; conditions: 25 μg s.c.
Description: as §1, §4, §5, §6

spleen = assay: Spleen weights after mobilization studies; type: in vivo; conditions: 25 μg s.c.
Description: as §1
Sterile filtered PBS (pH 7.2) served as vehicle in all studies and was injected intravenously in the tail vein in similar volumes (50 or 100 μl) and time-points as the other test items within each study. Recombinant pegylated granulocyte-colony stimulatory factor (G-CSF), pegfilgrastim (Neulasta™, Amgen), with the stock concentration 10 mg/ml, was diluted immediately before the injections in sterile filtered PBS (pH 7.2) to yield a 0.25-0.5 mg/ml dosing solution. […]

[5] = test system: hematopoietic cell populations of mouse peripheral blood; assay: Immunophenotypic profiling of peripheral blood by flow cytometry; type: in vivo, C57BL/6J mice; conditions: pegfilgrastim 25 μg s.c. −5 days
Description: as §1, §2
The LMW hyaluronic acid (HA) derivatives were tested for capability to mobilize hematopoietic stem and progenitor cells to peripheral blood after 500 μg i.v. injections at the following time-points: 4h, 1d, 2d, 3d and 5d post-injections. Repetitive dosing was tested with daily 500 μg i.v. injections and sampling was done either on experimental days 2 (after 3 doses) or 5 (after 6 doses) after the first injection on day 0. Abnormal clinical signs or mortality was not observed with the LMW HA derivatives with 500 μg doses. The LMW HA derivatives were also tested in combination with a single dose of pegfilgrastim (Neulasta™). In combinatorial G-CSF+LMW HA studies, pegfilgrastim was always injected s.c. at experimental day 0 and the LMW HA derivatives were administered i.v. as • a) single doses of 500 μg at experimental day 3, • b) single doses of 500 μg 1 or 4 hours before sampling, or • c) as repetitive doses of 500 μg daily from experimental day 0-5 (in total 6 doses).
Flow cytometric analysis was performed on FACSAria (Becton Dickinson Biosciences) with a 488-nm argon laser for (PE, FITC and PE-Cy7), a 633-nm hene laser for (APC and APC-Cy7). Fluorescense was measured using 530/30-nm (FITC), 585/42-nm (PE), 780/60-nm (PE-Cy7), 660/20-nm (APC) and 780/60 (APC-Cy7) bandpass filters.
Peripheral mouse blood was diluted 1:5 in 0.9% NaCl (Baxter). Fluorescence labels (ebiosciences, except APC-CD45 BD Biosciences): 0.04 μg phycoerythrin (PE)-conjugated CD11c (dendritic cells; clone N418; cat#12-0114), fluorescein isothiocyanate (FITC)-conjugated 0.3 μg TER-119 (erythroid cells; clone TER-119; cat#11-5921), 0.1 allophycocyanin (APC)-conjugated CD314 (natural killer cells; clone CX5; 17-5882), 0.08 μg APC-Cyanine 7 (Cy7)-conjugated CD3e (T cells; clone 17A2; cat#27.0032) and 0.04 μg PE-Cy7 conjugated CD45R (B cells; RA3-6B2; 25-0452) were combined in one tube and 0.08 μg PE-conjugated CD115 (for monocytes and macrophages; clone AFS98; cat#12-1152), 0.2 μg FITC-conjugated-CD41 (megakaryocytes and hematopoietic progenitors; clone MWReg30; cat#11-0411), 0.08 μg APC-conjugated CD45 (leukocytes; clone 30-F11; cat#559864) and 0.03 μg PE-Cy7-conjugated LY-6G (neutrophils; clone RB6-8C5; cat#25-5931) were combined in another tube, incubated for 30 minutes on ice protected from light. […]

[6] = test system: SLAM+ cells (CD150+CD48−CD45+) in peripheral blood; assay: SLAM immunophenotyping by flow cytometry; type: in vivo, C57BL/6J mice; conditions: pegfilgrastim 25 μg s.c. day 0; combination + single 500 μg i.v. one hour before sampling (FIG. 14)
Description: as §1, with “No formal randomization or grouping was done. Animals were randomly allocated to the study groups. All animals were weighed before the first dosing and in the end of each study.” left out
The enrichment of long-term repopulating (LTR) hematopoietic stem cells was detected with representation of SLAM markers. […] CD45+ cells expressing CD150, but not CD48 cell surface markers were determined as a population highly enriched with LTR hematopoietic stem cells.
Although mobilization of HPCs may be of use for short-term repopulation in clinical settings, long-term repopulation and reconstitution of the hematopoietic cell system in a transplant recipient demands the presence of mobilized long-term repopulating hematopoietic stem cells (LTR-HSCs). […] The presence of SLAM (CD150+CD48−CD45+) positive cells in mouse blood was determined by flow cytometry after vehicle, pegfilgrastim or pegfilgrastim +6-O-S LMW HA dosing. […]

B1: pegfilgrastim (protein, chains of the INN, looked up)
chain: TPLGPASSLPQSFLLKCLEQVRKIQGDGAALQEKLCATYKLCHPEELVLLGHSLGIPWAPLSSCPSQALQLAGCLSQLHSGLFLYQGLLQALEGISPELGPTLDTLQLDVADFATTIWQQMEELGMAPALQPTQGAMPAFASAFQRRAGGVLVASHLQSFLEVSYRVLRHLAQP
modifications: N-terminal methionine, PEG
mean CFU colonies ([1]; Neulasta 25 μg s.c. day 0, sampling day 5, combination: 500 μg i.v. 1 hour before sampling (FIG. 10A)): 18.8 colonies/10^5 mononuclear cells
time of peak of HPC mobilization after s.c. injection ([1]; single 25 μg s.c.): 5 days
number of circulating HPCs in mouse peripheral blood, increase over background ([1]; single 25 μg s.c. at day 0, samples at day 5, CFU, 1×10^5 mononuclear cells): 40-50 fold
mobilization of circulating HPCs ([1]; single 25 μg s.c. injection (FIG. 9A)): robust mobilization of circulating HPCs
number of HPCs in the bone marrow, decrease [2]: over 2 fold
WBC counts 5 days after single dose [3]: remained high
numbers of mature RBC 2 days after s.c. injection ([4]; 2 days): elevate the numbers of mature RBC
RBC elevation 5 days after s.c. injection ([4]; 5 days, occasionally seen (FIG. 4C)): normalize back to control levels
spleen swelling 3 days after single s.c. injection (spleen; 3 days (FIG. 8A left panel)): evident
spleen swelling two days after s.c. injection (spleen; two days): evident
levels of circulating monocytes, neutrophils and eosinophils (MNEs) as a pool ([5]; combination + 500 μg i.v. 1 hour before sampling (FIG. 11A), listed as G-CSF): robust increase; also recorded: dramatically increased
granulocytes within the MNEs ([5]; combination + 500 μg i.v. 1 hour before sampling (FIG. 11B)): proliferated
levels of monocytes and macrophages as a pool ([5]; combination + 500 μg i.v. 1 hour before sampling (FIG. 11C)): decreased
levels of CD45+CD115+ progenitors ([5]; combination + 500 μg i.v. 1 hour before sampling (FIG. 12A)): increased
levels of CD45+CD41+ progenitors ([5]; combination + 500 μg i.v. 1 hour before sampling (FIG. 12B)): decreased from control levels
levels of Ter-119+ proerythroblasts ([5]; combination + 500 μg i.v. 1 hour before sampling (FIG. 12C)): decrease
levels of megakaryocytes and platelets ([5]; combination + 500 μg i.v. 1 hour before sampling (FIG. 12D)): decreased levels of megakaryocytes and platelets
levels of peripheral blood lymphocytes ([5]; combination + 500 μg i.v. 1 hour before sampling (FIG. 13A)): increased
CD3+ T-cells within the lymphocyte population ([5]; combination + 500 μg i.v. 1 hour before sampling (FIG. 13B)): increase
NK (CD314+) cell levels ([5]; combination + 500 μg i.v. 1 hour before sampling (FIG. 13C)): remained unaltered
CD45R+ B-cells within the lymphocyte population ([5]; combination + 500 μg i.v. 1 hour before sampling (FIG. 13D)): decrease
levels of circulating SLAM+ cells (CD150+CD48−CD45+) [6]: dramatically increased
